Reference: article PMC13078889

How the values were obtained:
LARP6 [1] = experiment: TR-FRET competition; settings: vs DIG-labeled A1 RNA; not in the material
LARP6 [2] = experiment: ITC; settings: not in the material

Substance: A1 RNA (COL1A1 5'SL, 48 nt)
- IC50 (LARP6 [1]): 6.84 nM

Substance: COL1A1-5'SL (A1), ITC
- Kd (LARP6 [2]; only stated as higher Kd than COL1A1-TIS, value in Table 2 not in material): > 400 nM

Substance: COL1A1-TIS
- Kd (LARP6 [2]): 400 nM
- IC50 (LARP6 [1]): 2.71 nM
